Source: the Human Domainome abundance scans (Beltran et al. 2025)
± gives the uncertainty stated by the source.

B1: Intersectin-1, residues 1156 to 1213; numbered along this chain, Q15811 (parent)
chain: AVCQVIGMYDYTAQNDDELAFNKGQIINVLNKEDPDWWKGEVNGQVGLFPSNYVKLTT

Variants of: B1
Test: abundance fitness (aPCA) (normalised: wild type 0, dead -1); higher = more abundant; growth selection in yeast, the domain comes from the species named
Settings: Homo sapiens

Variant	abundance fitness
AVCQVIGMYDYTAQNDDELAFNKGQIINVLNKEDPDWWKGEVNGQVGLFPSNCVKLTT [Y53C]	0.034 ± 0.1
AVCQVIGMYDYTAQNDDELAFNKGQIINVLNKEDPDWWKGEVNGQVGLFPSNAVKLTT [Y53A]	0.043 ± 0.093
AVCQVIGMYDYTAQNDDELAFNKGQIINVLNKEDPDWWKGEVNGQVGLFPSNNVKLTT [Y53N]	-0.54 ± 0.25
AVCQVIGMYDYTAQNDDELAFNKGQIINVLNKEDPDWWKGEVNGQVGLFPSNPVKLTT [Y53P]	-0.726 ± 0.17
AVCQVIGMYDYTAQNDDELAFNKGQIINVLNKEDPDWWKGEVNGQVGLFPSNLVKLTT [Y53L]	-0.155 ± 0.086
AVCQVIGMYDYTAQNDDELAFNKGQIINVLNKEDPDWWKGEVNGQVGLFPSNFVKLTT [Y53F]	-0.208 ± 0.15
AVCQVIGMYDYTAQNDDELAFNKGQIINVLNKEDPDWWKGEVNGQVGLFPSNDVKLTT [Y53D]	-0.834 ± 0.18
AVCQVIGMYDYTAQNDDELAFNKGQIINVLNKEDPDWWKGEVNGQVGLFPSNYPKLTT [V54P]	-0.842 ± 0.17
AVCQVIGMYDYTAQNDDELAFNKGQIINVLNKEDPDWWKGEVNGQVGLFPSNYIKLTT [V54I]	-0.773 ± 0.16
AVCQVIGMYDYTAQNDDELAFNKGQIINVLNKEDPDWWKGEVNGQVGLFPSNYDKLTT [V54D]	-0.943 ± 0.31
AVCQVIGMYDYTAQNDDELAFNKGQIINVLNKEDPDWWKGEVNGQVGLFPSNYLKLTT [V54L]	-0.854 ± 0.14
AVCQVIGMYDYTAQNDDELAFNKGQIINVLNKEDPDWWKGEVNGQVGLFPSNYHKLTT [V54H]	-0.767 ± 0.23
AVCQVIGMYDYTAQNDDELAFNKGQIINVLNKEDPDWWKGEVNGQVGLFPSNYAKLTT [V54A]	-0.546 ± 0.11
AVCQVIGMYDYTAQNDDELAFNKGQIINVLNKEDPDWWKGEVNGQVGLFPSNYQKLTT [V54Q]	-0.904 ± 0.22
AVCQVIGMYDYTAQNDDELAFNKGQIINVLNKEDPDWWKGEVNGQVGLFPSNYCKLTT [V54C]	-0.367 ± 0.12
AVCQVIGMYDYTAQNDDELAFNKGQIINVLNKEDPDWWKGEVNGQVGLFPSNYSKLTT [V54S]	-0.874 ± 0.12
AVCQVIGMYDYTAQNDDELAFNKGQIINVLNKEDPDWWKGEVNGQVGLFPSNYEKLTT [V54E]	-0.931 ± 0.33
AVCQVIGMYDYTAQNDDELAFNKGQIINVLNKEDPDWWKGEVNGQVGLFPSNYNKLTT [V54N]	-0.758 ± 0.21
AVCQVIGMYDYTAQNDDELAFNKGQIINVLNKEDPDWWKGEVNGQVGLFPSNYWKLTT [V54W]	-0.762 ± 0.14
AVCQVIGMYDYTAQNDDELAFNKGQIINVLNKEDPDWWKGEVNGQVGLFPSNYFKLTT [V54F]	-0.806 ± 0.25
AVCQVIGMYDYTAQNDDELAFNKGQIINVLNKEDPDWWKGEVNGQVGLFPSNYMKLTT [V54M]	-0.755 ± 0.27
AVCQVIGMYDYTAQNDDELAFNKGQIINVLNKEDPDWWKGEVNGQVGLFPSNYGKLTT [V54G]	-0.836 ± 0.12
AVCQVIGMYDYTAQNDDELAFNKGQIINVLNKEDPDWWKGEVNGQVGLFPSNYTKLTT [V54T]	-0.065 ± 0.14

Variant	abundance fitness
AVCQVIGMYDYTAQNDDELAFNKGQIINVLNKEDPDWWKGEVNGQVGLFPSNYKKLTT [V54K]	-0.906 ± 0.24
AVCQVIGMYDYTAQNDDELAFNKGQIINVLNKEDPDWWKGEVNGQVGLFPSNYYKLTT [V54Y]	-0.766 ± 0.26
AVCQVIGMYDYTAQNDDELAFNKGQIINVLNKEDPDWWKGEVNGQVGLFPSNYRKLTT [V54R]	-0.684 ± 0.094
AVCQVIGMYDYTAQNDDELAFNKGQIINVLNKEDPDWWKGEVNGQVGLFPSNYVKNTT [L56N]	-0.149 ± 0.22
AVCQVIGMYDYTAQNDDELAFNKGQIINVLNKEDPDWWKGEVNGQVGLFPSNYVKRTT [L56R]	-0.341 ± 0.083
AVCQVIGMYDYTAQNDDELAFNKGQIINVLNKEDPDWWKGEVNGQVGLFPSNYVKPTT [L56P]	-0.121 ± 0.14
AVCQVIGMYDYTAQNDDELAFNKGQIINVLNKEDPDWWKGEVNGQVGLFPSNYVKITT [L56I]	0.069 ± 0.2
AVCQVIGMYDYTAQNDDELAFNKGQIINVLNKEDPDWWKGEVNGQVGLFPSNYVKVTT [L56V]	0.006 ± 0.094
AVCQVIGMYDYTAQNDDELAFNKGQIINVLNKEDPDWWKGEVNGQVGLFPSNYVKCTT [L56C]	0.266 ± 0.13
AVCQVIGMYDYTAQNDDELAFNKGQIINVLNKEDPDWWKGEVNGQVGLFPSNYVKETT [L56E]	0.005 ± 0.13
AVCQVIGMYDYTAQNDDELAFNKGQIINVLNKEDPDWWKGEVNGQVGLFPSNYVKGTT [L56G]	-0.102 ± 0.079
AVCQVIGMYDYTAQNDDELAFNKGQIINVLNKEDPDWWKGEVNGQVGLFPSNYVKHTT [L56H]	-0.334 ± 0.24
AVCQVIGMYDYTAQNDDELAFNKGQIINVLNKEDPDWWKGEVNGQVGLFPSNYVKWTT [L56W]	-0.405 ± 0.11
AVCQVIGMYDYTAQNDDELAFNKGQIINVLNKEDPDWWKGEVNGQVGLFPSNYVKTTT [L56T]	0.081 ± 0.14
AVCQVIGMYDYTAQNDDELAFNKGQIINVLNKEDPDWWKGEVNGQVGLFPSNYVKATT [L56A]	0.08 ± 0.093
AVCQVIGMYDYTAQNDDELAFNKGQIINVLNKEDPDWWKGEVNGQVGLFPSNYVKQTT [L56Q]	-0.151 ± 0.11
AVCQVIGMYDYTAQNDDELAFNKGQIINVLNKEDPDWWKGEVNGQVGLFPSNYVKDTT [L56D]	-0.106 ± 0.15
AVCQVIGMYDYTAQNDDELAFNKGQIINVLNKEDPDWWKGEVNGQVGLFPSNYVKYTT [L56Y]	-0.168 ± 0.22
AVCQVIGMYDYTAQNDDELAFNKGQIINVLNKEDPDWWKGEVNGQVGLFPSNYVKSTT [L56S]	0.083 ± 0.087
AVCQVIGMYDYTAQNDDELAFNKGQIINVLNKEDPDWWKGEVNGQVGLFPSNYVKMTT [L56M]	-0.148 ± 0.12
AVCQVIGMYDYTAQNDDELAFNKGQIINVLNKEDPDWWKGEVNGQVGLFPSNYVKFTT [L56F]	-0.124 ± 0.16
AVCQVIGMYDYTAQNDDELAFNKGQIINVLNKEDPDWWKGEVNGQVGLFPSWYVKLTT [N52W]	-0.446 ± 0.14
AVCQVIGMYDYTAQNDDELAFNKGQIINVLNKEDPDWWKGEVNGQVGLFPSYYVKLTT [N52Y]	-0.291 ± 0.21
